Results taken from patent US20240158494A1 (Biogen, published 2024).
Like-named read-outs stand apart in the source and are kept apart here.

Legend:
[1] = target: T1, cynomolgus monkey transferrin receptor 1 (TfR1), full length, expressed on cells (cynomolgus monkey, UniProt Q5RDH6 1-760 (Pongo abelii entry)); test: FACS on Ba/F3 cells, Fab supernatant
T1 construct: also called cyno TfR1; cyTfR

[2] = target: T2, human transferrin receptor 1 (TfR1), full length, expressed on cells (human, UniProt P02786 1-760); test: FACS on Ba/F3 cells, Fab supernatant
T2 construct: also called human TfR1; huTfR

[3] = target: T1, cynomolgus monkey transferrin receptor …; test: FACS on Ba/F3 cells, Fab supernatant; remark: listed apart in the source
[4] = target: T2, human transferrin receptor 1 (TfR1), …; test: FACS on Ba/F3 cells, Fab supernatant; remark: listed apart in the source
[5] = target: T3, recombinant human TfR1 extracellular domain, His-tagged (human, UniProt P02786 89-760); test: SPR, TfR1 ECD-His captured, Fab injected, 1:1 fit
T3 construct: also called Human TfR1 ECD; human TfR1 ECD-His

[6] = target: T4, recombinant cynomolgus monkey TfR1 extracellular domain, His-tagged (cynomolgus monkey, UniProt Q5RDH6 87-760 (Pongo abelii entry)); test: SPR, TfR1 ECD-His captured, Fab injected, 1:1 fit
T4 construct: also called Cyno TfR1 ECD; cyno TfR1 ECD-His

Binder	EC50 [3]	EC50 [4]	further results
TfRANTIBODY-B HC-H4C/LC-L2 (C90V) hIgG1Fab′(1C) (Fab, V domains shown, also called ANTIBODY-B H4C/L2(C90V); H4C (C90V)/L2) VH: QSLVESGGGVVQPGRSLRLSCKASGFSFSNSYWICWVRQAPGKGLEWVGCINTDADSTNYASWARGRFTISKTSSTTVYLQMNSLRAEDTAVYYCARQNNVFDPGYNLWGPGTLVTVSS VL: ELVLTQSPSTLSASVGDRVTITCRASQNIGSNLAWYQQKPGKAPKLLIYDASKLESGVPSRFSGSGSGTEFTLTISSLQPDDFATYYCQVTVRGGAYGNAFGGGTKVEIKR	–	–	EC50 [1]: 2.2 nM; EC50 [2]: 4.9 nM
TfRANTIBODY-B HC-H1C/LC-L2 (C90V) hIgG1Fab′(1C) (Fab, V domains shown, also called ANTIBODY-B H1C/L2(C90V)) VH: QSLVESGGGVVQPGRSLRLSCAASGFSFSNSYWICWVRQAPGKGLEWVGCINTDADSTNYADSVKGRFTISKDNSKNTVYLQMNSLRAEDTAVYYCARQNNVFDPGYNLWGQGTLVTVSS VL: ELVLTQSPSTLSASVGDRVTITCRASQNIGSNLAWYQQKPGKAPKLLIYDASKLESGVPSRFSGSGSGTEFTLTISSLQPDDFATYYCQVTVRGGAYGNAFGGGTKVEIKR	–	–	EC50 [1]: 2.9 nM; EC50 [2]: 10.7 nM
TfRANTIBODY-B HC-H3C/LC-L2 (C90S) hIgG1Fab′(1C) (Fab, V domains shown, also called ANTIBODY-B H3C/L2(C90S)) VH: QSLVESGGGVVQPGRSLRLSCAASGFSFSNSYWICWVRQAPGKGLEWVGCINTDADSTNYASWARGRFTISKDNSKNTLYLQMNSLRAEDTAVYYCARQNNVFDPGYNLWGQGTLVTVSS VL: ELVLTQSPSTLSASVGDRVTITCRASQNIGSNLAWYQQKPGKAPKLLIYDASKLESGVPSRFSGSGSGTEFTLTISSLQPDDFATYYCQSTVRGGAYGNAFGGGTKVEIKR	–	–	EC50 [1]: 6.2 nM; EC50 [2]: 16.8 nM
TfR1 ANTIBODY-A HC-H0 hIgG1 Fab′(1C)/LC-L1 hKappa (Fab, V domains shown, also called ANTIBODY-A H0/L1) VH: EVQLVESGGGLVQPGGSLRLSCAASGIDFSSSGYMAWVRQAPGKGLEWVGAIYTYSSNTYYAASVKGRFTISRDDSKNSLYLQMNSLKTEDTAVYYCARGTYGYTGYTYTMGYFSLWGQGTLVTVSS VL: DIQMTQSPSTLSASVGDRVTITCQASQNINSYLAWYQQKPGKAPKLLIYRASTLASGVPSRFSGSGSGTEFTLTISSLQPDDFATYYCQSYYYSGSSNYNAFGGGTKVEIKR	> 107 nM	~19 nM	–
TfR1 ANTIBODY-A HC-H1C hIgG1 Fab′(1C)/LC-L1 hKappa (Fab, V domains shown, also called ANTIBODY-A H1C/L1) VH: QSLVESGGGLVQPGGSLRLSCAASGIDFSSSGYMCWVRQAPGKGLEWVGCIYTYSSNTYYAASVKGRFTISRDDSKNSLYLQMNSLKTEDTAVYYCARGTYGYTGYTYTMGYFSLWGQGTLVTVSS VL: DIQMTQSPSTLSASVGDRVTITCQASQNINSYLAWYQQKPGKAPKLLIYRASTLASGVPSRFSGSGSGTEFTLTISSLQPDDFATYYCQSYYYSGSSNYNAFGGGTKVEIKR	~26 nM	3.6 nM	–
TfR1 ANTIBODY-A HC-H1 hIgG1 Fab′(1C)/LC-L1 hKappa (Fab, V domains shown, also called ANTIBODY-A H1/L1) VH: QSLVESGGGLVQPGGSLRLSCAASGIDFSSSGYMAWVRQAPGKGLEWVGAIYTYSSNTYYAASVKGRFTISRDDSKNSLYLQMNSLKTEDTAVYYCARGTYGYTGYTYTMGYFSLWGQGTLVTVSS VL: DIQMTQSPSTLSASVGDRVTITCQASQNINSYLAWYQQKPGKAPKLLIYRASTLASGVPSRFSGSGSGTEFTLTISSLQPDDFATYYCQSYYYSGSSNYNAFGGGTKVEIKR	> 162 nM	~30 nM	–
TfR1 ANTIBODY-A HC-H0C hIgG1 Fab′(1C)/LC-L2 hKappa (Fab, V domains shown, also called ANTIBODY-A H0C/L2) VH: EVQLVESGGGLVQPGGSLRLSCAASGIDFSSSGYMCWVRQAPGKGLEWVGCIYTYSSNTYYAASVKGRFTISRDDSKNSLYLQMNSLKTEDTAVYYCARGTYGYTGYTYTMGYFSLWGQGTLVTVSS VL: ELDMTQSPSTLSASVGDRVTITCQASQNINSYLAWYQQKPGKAPKLLIYRASTLASGVPSRFSGSGSGTEFTLTISSLQPDDFATYYCQSYYYSGSSNYNAFGGGTKVEIKR	–	3.6 nM	–
TfR1 ANTIBODY-A HC-H2 hIgG1 Fab′(1C)/LC-L1 hKappa (Fab, V domains shown, heavy chain derived; also called ANTIBODY-A H2/L1) VH: QSLVESGGGLVQPGGSLRLSCAASGIDFSSSGYMAWVRQAPGKGLEWVGAIYTYSSNTYYAASVKGRFTISKTSSTTVYLQMNSLKTEDTAVYYCARGTYGYTGYTYTMGYFSLWGQGTLVTVSS VL: DIQMTQSPSTLSASVGDRVTITCQASQNINSYLAWYQQKPGKAPKLLIYRASTLASGVPSRFSGSGSGTEFTLTISSLQPDDFATYYCQSYYYSGSSNYNAFGGGTKVEIKR	> 36 nM	4.4 nM	–
TfR1 ANTIBODY-A HC-H1 hIgG1 Fab′(1C)/LC-L2 hKappa (Fab, V domains shown, also called ANTIBODY-A H1/L2) VH: QSLVESGGGLVQPGGSLRLSCAASGIDFSSSGYMAWVRQAPGKGLEWVGAIYTYSSNTYYAASVKGRFTISRDDSKNSLYLQMNSLKTEDTAVYYCARGTYGYTGYTYTMGYFSLWGQGTLVTVSS VL: ELDMTQSPSTLSASVGDRVTITCQASQNINSYLAWYQQKPGKAPKLLIYRASTLASGVPSRFSGSGSGTEFTLTISSLQPDDFATYYCQSYYYSGSSNYNAFGGGTKVEIKR	–	> 74 nM	–
TfR1 ANTIBODY-A HC-H2 hIgG1 Fab′(1C)/LC-L2 hKappa (Fab, V domains shown, heavy chain derived; also called ANTIBODY-A H2/L2) VH: QSLVESGGGLVQPGGSLRLSCAASGIDFSSSGYMAWVRQAPGKGLEWVGAIYTYSSNTYYAASVKGRFTISKTSSTTVYLQMNSLKTEDTAVYYCARGTYGYTGYTYTMGYFSLWGQGTLVTVSS VL: ELDMTQSPSTLSASVGDRVTITCQASQNINSYLAWYQQKPGKAPKLLIYRASTLASGVPSRFSGSGSGTEFTLTISSLQPDDFATYYCQSYYYSGSSNYNAFGGGTKVEIKR	> 52 nM	6.5 nM	–
TfR1 ANTIBODY-A HC-H3C hIgG1 Fab′(1C)/LC-L2 hKappa (Fab, V domains shown, also called ANTIBODY-A H3C/L2) VH: QSLVESGGGLVQPGGSLRLSCKASGIDFSSSGYMCWVRQAPGKGLEWVGCIYTYSSNTYYASWAKGRFTISKDSKNSVYLQMNSLKTEDTAVYYCARGTYGYTGYTYTMGYFSLWGPGTLVTVSS VL: ELDMTQSPSTLSASVGDRVTITCQASQNINSYLAWYQQKPGKAPKLLIYRASTLASGVPSRFSGSGSGTEFTLTISSLQPDDFATYYCQSYYYSGSSNYNAFGGGTKVEIKR	10.4 nM	1.6 nM	Kd [5]: 2.4 nM; koff [5]: 0.00215 s⁻¹; kon [5]: 886000 M⁻¹ s⁻¹; Kd [6]: 8.3 nM; koff [6]: 0.0178 s⁻¹; kon [6]: 2.16e+06 M⁻¹ s⁻¹
TfR1 ANTIBODY-A HC-H0 hIgG1 Fab′(1C)/LC-L2 hKappa (Fab, V domains shown, also called ANTIBODY-A H0/L2) VH: EVQLVESGGGLVQPGGSLRLSCAASGIDFSSSGYMAWVRQAPGKGLEWVGAIYTYSSNTYYAASVKGRFTISRDDSKNSLYLQMNSLKTEDTAVYYCARGTYGYTGYTYTMGYFSLWGQGTLVTVSS VL: ELDMTQSPSTLSASVGDRVTITCQASQNINSYLAWYQQKPGKAPKLLIYRASTLASGVPSRFSGSGSGTEFTLTISSLQPDDFATYYCQSYYYSGSSNYNAFGGGTKVEIKR	–	> 70 nM	–
TfR1 ANTIBODY-A HC-H4C hIgG1 Fab′(1C)/LC-L2 hKappa (Fab, V domains shown, also called ANTIBODY-A H4C/L2) VH: QSLVESGGGLVQPGGSLRLSCKASGIDFSSSGYMCWVRQAPGKGLEWVGCIYTYSSNTYYASWAKGRFTISKTSSTTVYLQMNSLKTEDTAVYYCARGTYGYTGYTYTMGYFSLWGPGTLVTVSS VL: ELDMTQSPSTLSASVGDRVTITCQASQNINSYLAWYQQKPGKAPKLLIYRASTLASGVPSRFSGSGSGTEFTLTISSLQPDDFATYYCQSYYYSGSSNYNAFGGGTKVEIKR	3.3 nM	1.6 nM	Kd [5]: 1.6 nM; koff [5]: 0.00148 s⁻¹; kon [5]: 931000 M⁻¹ s⁻¹; Kd [6]: 6.2 nM; koff [6]: 0.0134 s⁻¹; kon [6]: 2.16e+06 M⁻¹ s⁻¹

Continued, in another order:

EC50 [3]	EC50 [4]	Binder	further results
> 85 nM	18 nM	TfR1 ANTIBODY-A HC-H0 hIgG1 Fab′(1C)/LC-L0 hKappa (Fab, V domains shown, also called ANTIBODY-A H0/L0) VH: EVQLVESGGGLVQPGGSLRLSCAASGIDFSSSGYMAWVRQAPGKGLEWVGAIYTYSSNTYYAASVKGRFTISRDDSKNSLYLQMNSLKTEDTAVYYCARGTYGYTGYTYTMGYFSLWGQGTLVTVSS VL: DIQMTQSPSTLSASVGDRVTITCQASQNINSYLAWYQQKPGKAPKLLIYRASSLESGVPSRFSGSGSGTEFTLTISSLQPDDFATYYCQSYYYSGSSNYNAFGGGTKVEIKR	–
15.5 nM	2.5 nM	TfR1 ANTIBODY-A HC-H1C hIgG1 Fab′(1C)/LC-L0 hKappa (Fab, V domains shown, also called ANTIBODY-A H1C/L0) VH: QSLVESGGGLVQPGGSLRLSCAASGIDFSSSGYMCWVRQAPGKGLEWVGCIYTYSSNTYYAASVKGRFTISRDDSKNSLYLQMNSLKTEDTAVYYCARGTYGYTGYTYTMGYFSLWGQGTLVTVSS VL: DIQMTQSPSTLSASVGDRVTITCQASQNINSYLAWYQQKPGKAPKLLIYRASSLESGVPSRFSGSGSGTEFTLTISSLQPDDFATYYCQSYYYSGSSNYNAFGGGTKVEIKR	–
~39 nM	3.6 nM	TfR1 ANTIBODY-A HC-H1C hIgG1 Fab′(1C)/LC-L2 hKappa (Fab, V domains shown, also called ANTIBODY-A H1C/L2) VH: QSLVESGGGLVQPGGSLRLSCAASGIDFSSSGYMCWVRQAPGKGLEWVGCIYTYSSNTYYAASVKGRFTISRDDSKNSLYLQMNSLKTEDTAVYYCARGTYGYTGYTYTMGYFSLWGQGTLVTVSS VL: ELDMTQSPSTLSASVGDRVTITCQASQNINSYLAWYQQKPGKAPKLLIYRASTLASGVPSRFSGSGSGTEFTLTISSLQPDDFATYYCQSYYYSGSSNYNAFGGGTKVEIKR	–
7.4 nM	2.8 nM	TfR1 ANTIBODY-A HC-H2C hIgG1 Fab′(1C)/LC-L2 hKappa (Fab, V domains shown, also called ANTIBODY-A H2C/L2) VH: QSLVESGGGLVQPGGSLRLSCAASGIDFSSSGYMCWVRQAPGKGLEWVGCIYTYSSNTYYAASVKGRFTISKTSSTTVYLQMNSLKTEDTAVYYCARGTYGYTGYTYTMGYFSLWGQGTLVTVSS VL: ELDMTQSPSTLSASVGDRVTITCQASQNINSYLAWYQQKPGKAPKLLIYRASTLASGVPSRFSGSGSGTEFTLTISSLQPDDFATYYCQSYYYSGSSNYNAFGGGTKVEIKR	Kd [5]: 2.2 nM; koff [5]: 0.00213 s⁻¹; kon [5]: 952000 M⁻¹ s⁻¹; Kd [6]: 7.8 nM; koff [6]: 0.0137 s⁻¹; kon [6]: 1.76e+06 M⁻¹ s⁻¹
> 176 nM	25 nM	TfR1 ANTIBODY-A HC-H1 hIgG1 Fab′(1C)/LC-L0 hKappa (Fab, V domains shown, also called ANTIBODY-A H1/L0) VH: QSLVESGGGLVQPGGSLRLSCAASGIDFSSSGYMAWVRQAPGKGLEWVGAIYTYSSNTYYAASVKGRFTISRDDSKNSLYLQMNSLKTEDTAVYYCARGTYGYTGYTYTMGYFSLWGQGTLVTVSS VL: DIQMTQSPSTLSASVGDRVTITCQASQNINSYLAWYQQKPGKAPKLLIYRASSLESGVPSRFSGSGSGTEFTLTISSLQPDDFATYYCQSYYYSGSSNYNAFGGGTKVEIKR	–
